{"source": "FireProtDB (doi:10.1016/j.jmb.2009.08.013)", "details": "Bos taurus; pH 7.2; 10 °C; Urea; Fluorescence; Sodium phosphate 25 mM; KCl 150 mM; whole UniProt chain shown"}
{"protein": "Cellular tumor antigen p53 wild type, P67939 (protein) MEESQAELNVEPPLSQETFSDLWNLLPENNLLSSELSAPVDDLLPYTDVATWLDECPNEAPQMPEPSAPAAPPPATPAPATSWPLSSFVPSQKTYPGNYGFRLGFLQSGTAKSVTCTYSPSLNKLFCQLAKTCPVQLWVDSPPPPGTRVRAMAIYKKLEHMTEVVRRCPHHERSSDYSDGLAPPQHLIRVEGNLRAEYLDDRNTFRHSVVVPYESPEIDSECTTIHYNFMCNSSCMGGMNRRPILTIITLEDSCGNLLGRNSFEVRVCACPGRDRRTEEENLRKKGQSCPEPPPRSTKRALPTNTSSSPQPKKKPLDGEYFTLQIRGFKRYEMFRELNDALELKDALDGREPGESRAHSSHLKSKKRPSPSCHKKPMLKREGPDSD", "values": [{"measurement": "denaturant midpoint (higher = more stable)", "value": 5.21, "unit": "M"}]}
